Results on 1 molecule are retold here after patent US20150239980A1 (NEOTOPE BOSCIENCES, published 2015).

This assay has as its target T1, recombinant human laminin 511 (Biolamina) (human, UniProt O15230 36-3695; P07942 22-1786; P11047 34-1609).
T1 construct: negative control; also called laminin 10 (α5β1γ1)
Kind of assay: flow cytometry, human MCAM CHO cells, pan-laminin antibody. (In general: In flow cytometry, cells or beads pass a laser one at a time.)

B1: human MCAM (melanoma cell adhesion molecule) expressed on transfected CHO cells (receptor)
chain: VPGEAEQPAPELVEVEVGSTALLKCGLSQSQGNLSHVDWFSVHKEKRTLIFRVRQGQGQSEPGEYEQRLSLQDRGATLALTQVTPQDERIFLCQGKRPRSQEYRIQLRVYKAPEEPNIQVNPLGIPVNSKEPEEVATCVGRNGYPIPQVIWYKNGRPLKEEKNRVHIQSSQTVESSGLYTLQSILKAQLVKEDKDAQFYCELNYRLPSGNHMKESREVTVPVFYPTEKVWLEVEPVGMLKEGDRVEIRCLADGNPPPHFSISKGNPSTREAEEETTNDNGVLVLEPARKEHSGRYECQAWNLDTMISLLSEPQELLVNYVSDVRVSPAAPERQEGSSLTLTCEAESSQDLEFQWLREETDQVLERGPVLQLHDLKREAGGGYRCVASVPSIPGLNRTQLVKLAIFGPPWMAFKERKVWVKENMVLNLSCEASGHPRPTISWNVNGTASEGDQDPQRVLSTLNVLVTPELLETGVECTASNDLGKNTSILFLELVNLTTLTPDSNTTTGLSTSTASPHTRANSTSTERKLPEPESRGVVIVAVIVCILVLAVLGAVLYFLYKKGKLPCRRSGKQEITLPPSRKTELVVEVKSDKLPEEMGLLQGSSGDKRAPGDQGEKYIDLRH
notes: also called hMCAM; CD146
In the case of B1, the binding result was “no binding (tested: 10 µg/ml)”.
